Test results as given in article PMC3696110, “Hsp70 Oligomerization Is Mediated by an Interaction between the Interdomain Linker and the Substrate-Binding Domain” (PLoS ONE, 2013).
Several values for one entry are separate records, joined by “and”; a condition that tells them apart may be missing. Equal entries are not always repeated. Where two headings read alike, the source gives them in different places.

What was measured:
[1] = nESI-MS relative populations of oligomeric forms; type: physicochemical, human; conditions: 6-15 µM protein, 150 mM ammonium acetate, pH 7.4, estimated error 5% (SD of 3-4 independent experiments)
Protocol: Prior to MS analysis, samples were buffer exchanged into 150 mM ammonium acetate, pH 7.4, using Micro Bio-spin 6 columns (Bio-Rad, Digilab Division, Cambridge, MA, USA). For all the experiments protein concentrations ranging from 6 to 18 µM were used. In the case of the substrate binding experiments, proteins were analyzed in the presence of a 1: 1 molar ratio of the NR peptide; this substrate concentration, lower than in the SEC experiments, was chosen to ensure adequate resolution of the various charge state series, which is critical for unambiguous assignment of substrate-bound states. Due to suppression effects during nESI ionization, a relatively limited set of molar ratios could be investigated by in this way.
nESI-MS spectra were obtained according to a previously published protocol on an orthogonal time-of-flight mass spectrometer with a Z-spray source (LCT, Waters, Manchester, UK) in positive ion mode using the following parameters: capillary voltage, 1500 V; sample cone voltage, 120 V (unless otherwise specified); extraction cone voltage, 1V; and ion transfer stage pressure, 8.8 mbar. Spectra were calibrated externally using a 33 mg/ml solution of cesium iodide. Data were acquired and processed with MassLynx software (Waters, Manchester, UK), and are shown with minimal smoothing and without background subtraction. The relative abundances of the different oligomeric states were estimated from the intensities of the most abundant charge states for each construct and are expressed as a percentage of the total intensity.

[2] = Analytical SEC relative populations of oligomeric forms; type: physicochemical, human; conditions: Superdex 75, 4 °C; for Dimer population / Monomer population / Total oligomer population: 50 mM Tris pH 7.4, 150 mM KCl
Protocol: Analytical SEC was performed at 4 °C using a Superdex 75 10/300 GL column (GE Healthcare LifeSciences, Little Chalfont, U.K.), which had previously been calibrated using a mixture of standard proteins (Gel Filtration LMW Calibration Kit; GE Healthcare LifeSciences, Little Chalfont, U.K.). Typically, samples of the various constructs contained 70 µM of protein in 50 mM Tris buffer at pH 7.4, with 150 mM KCl, 5 mM MgCl2 and were incubated for 15 min (unless otherwise specified) at room temperature before being loaded onto the column for analysis. To evaluate the reversibility of the oligomerization process, the different elution peaks obtained for each protein variant were subsequently analyzed after concentrating the different fractions using AmiconUltra-0.5, Ultracel-3 Membrane, 3 kDa (Millipore, Bedford, MA, USA). A similar analysis was also performed at 6 µM concentration for all the protein variants to allow for a direct comparison between the results obtained by SEC and MS experiments.
The influence of substrate binding on the oligomerization properties of all the variants was examined by using the well-characterized Hsp70 substrate, the NR peptide (NRLLLTG, Genemed Synthesis Inc., San Antonio, TX, USA). A 14-fold excess of the peptide was added in each case to a fresh protein sample, incubated for 1 h at room temperature, unless otherwise specified, and then loaded onto the Superdex 75 10/300 GL column for analysis. The relative quantities of the different protein species were estimated by analysing the chromatographic profile using a Gaussian function for each elution peak (OriginPro 8, Originlab, Northampton, MA, USA) and measuring the relative area under each peak.

[3] = Secondary structure content from far-UV CD; type: physicochemical, human; conditions: K2D software; 20 µM protein, 7 mM Tris pH 7.4, 170 mM KCl, 5 mM MgCl2; 25 °C
Protocol: Far-UV CD spectra for all protein variants were recorded using a Jasco J-810 spectropolarimeter equipped with a Peltier holder, using a 0.1 cm path length cuvette. Typically, samples contained 20 µM protein in 7 mM Tris buffer at pH 7.4, containing 170 mM KCl and 5 mM MgCl2. The far-UV CD spectra of all the variants in their native, thermally denatured and refolded states were recorded from 198 to 250 nm, and the spectrum of the buffer was systematically subtracted from the spectra of all protein samples. The secondary structure content was estimated from the far-UV CD spectrum for each protein variant using K2D software.

[4] = cited from earlier work; for Protein in oligomeric state: ref [30]
Text: It has been shown, for example, that up ...

[5] = Thermal denaturation monitored by far-UV CD; type: physicochemical, human
Protocol: Protein structural stability was analyzed by monitoring the CD signal at 222 nm upon thermal denaturation. Thermal runs were performed from 5 to 90 °C at a rate of 1 °C. min^-1. Data points were acquired every 0.1 °C with a response time of 2 s and a bandwidth of […]. After thermal denaturation, each protein sample was cooled to the starting temperature, and a second denaturation curve recorded in order to analyse the degree of reversibility of the denaturation process. Analysis of the thermal unfolding curves was performed assuming a three-state unfolding model.

peptide substrates = system: peptide substrates; parameters: method as in PMID 10876246; conditions: two different peptide substrates; ref [3]; cited from earlier work
∆LSBD641 = assay: Fluorescence competition assay of dansylated and non-dansylated NR peptide; type: binding, human
Protocol: Fluorescence competition assay. Samples containing 50 μM ∆LSBD641 and 2 μM dansylated-NR peptide (D-NR) in Tris 50 mM, pH 7.4, 150 mM KCl, 5 mM MgCl2 were incubated in the presence of different concentrations of non-dansylated NR peptide (ND-NR; 0, 50 and 200 μM) for 1h at room temperature and the dansyl fluorescence emission spectrum of each sample was recorded from 400 to 630 nm after excitation at 330 nm. The intensity at the maximum emission wavelength of three different samples for which ten spectra were recorded was averaged, and the fraction of bound D-NR peptide was then determined experimentally from the reduction in the fluorescence signal in relation to the reference sample without ND-NR peptide for which the fraction of bound D-NR peptide is known (83% of the D-NR peptide is bound in this conditions according to the affinity measured by fluorescence titration; see Figure […]
The fraction of bound D-NR peptide was theoretically calculated for each sample according to a competitive model where the two ligands bind to the same substrate-binding pocket in the chaperone and assuming different values for the affinity of the ND-NR peptide for ∆LSBD641 […]
fluorescence titration was 8 ± 2 μM).
From the mass balance of the total protein concentration (PT) in a two-ligands competitive model and substituting the concentration of each complex (PL1 and PL2, corresponding to the complex with D-NR and ND-NR peptide, respectively) by the expression obtained from the definition of the different dissociation constants, a third-order polynomial expression (A·P3 + B·P2 + C·P + D = 0) of the free concentration of protein (P) is obtained, where the coefficients of the different terms are:
(also on this page, place not known: dansylated - m M excitati on -NR sig nal ND -NR D -NR D -NR D -NR substrate -binding ND -NR K d D -NR ( PT) two -ligands substitut ing ( PL1 D -NR ND -NR third -order (A· P3 D ( P) Tdd TdTddTdTddTTTdd PKKD PKPkKLKLKKCPLLKKBA 21 211221212121 ;;;1 −= −−++=−+++==) […]
(1 picture or pasted object on this page, not shown here)

[6] = 70 µM protein, 5 mM MgCl2, 15 min at room temperature, estimated error 3.5% (SD of 3-4 independent experiments)
[7] = 6-15 µM protein, 5 mM MgCl2, estimated error 3.5% (SD of 3-4 independent experiments)

Substance: FL-Hsp70: full-length human Hsp70 1A, GenBank ID NP005336, recombinant N-hexa-His-tagged
- Monomer population [1]: 98%
- Total oligomer population [1]: 2%
- Trimer population [1]: 0%
- Dimer population [2, 6]: 7%
- Monomer population [2, 6]: 93%
- Oligomeric species ([2]; 220 µM protein, 50 mM Tris pH 7.4): 35%
- Dimer population [2, 7]: 1%
- Monomer population [2, 7]: 99%
- Total oligomer population [2, 7]: 1%
- Random-coil content estimated from far-UV CD [3]: 32%
- α-helix content estimated from far-UV CD [3]: 45%
- β-sheet content estimated from far-UV CD [3]: 23%

Substance: BiP/Grp78: endoplasmic reticulum resident Hsp70 chaperone
- Molecules existing as oligomers ([4]; in mammalian cells, ref [29]): 40-50%
- Molecules existing as oligomers ([4]; in vitro, ca. 5 µM protein, ref [28]): 40-50%

Substance: SBD556: truncated human Hsp70 (384-556), lacks helices C, D and E and C-terminal disordered region; L542Y mutation
- Dimer population [1]: 16%
- Monomer population [1]: 82%
- Trimer population [1]: 2%
- ∆Hm, 1st transition ([5]; CD 222 nm, 20 µM protein, 7 mM Tris pH 7.4, 170 mM KCl, 5 mM MgCl2, three-state fit (C-term two-state), SE of fit): 63.9 ± 1.9 kcal/mol
- ∆Hm, 2nd transition ([5]; CD 222 nm, 20 µM protein, 7 mM Tris pH 7.4, 170 mM KCl, 5 mM MgCl2, three-state fit, SE of fit): 85.4 ± 2.6 kcal/mol
- Tm, 1st transition ([5]; CD 222 nm, 5 to 90 °C at 1 °C/min, 20 µM protein, 7 mM Tris pH 7.4, 170 mM KCl, 5 mM MgCl2, three-state fit (C-term two-state), SE of fit): 46.8 ± 0.1 °C
- Tm, 2nd transition ([5]; CD 222 nm, 5 to 90 °C at 1 °C/min, 20 µM protein, 7 mM Tris pH 7.4, 170 mM KCl, 5 mM MgCl2, three-state fit, SE of fit): 64.5 ± 0.1 °C and 64.5 ± 0.2 °C
- Reversibility of thermal unfolding ([5]; far-UV CD, second denaturation curve after cooling): fully reversible
- Dimer population [2, 6]: 7%
- Monomer population [2, 6]: 93%
- Total oligomer population [2, 6]: 7%
- Dimer population [2, 7]: 3%
- Monomer population [2, 7]: 97%
- Total oligomer population [2, 7]: 3%
- Random-coil content estimated from far-UV CD [3]: 54%
- α-helix content estimated from far-UV CD [3]: 21%
- β-sheet content estimated from far-UV CD [3]: 25%

Substance: DnaK: bacterial Hsp70 homologue
- Protein in oligomeric state ([4]; 0.5 mg/ml (ca. 7 µM)): approximately 20%
- Protein in oligomeric state ([4]; 16 mg/ml (ca. 230 µM)): 70%

Substance: DnaK 2-538: DnaK mutant protein lacking the C-terminal 100 residues, i.e. helices C-E and part of helix B
- Association rate constants vs wild type DnaK (peptide substrates): unaffected
- Dissociation rate constants vs wild type DnaK (peptide substrates): considerable increase

Substance: dansylated NR peptide: NR peptide N-terminally labeled with dansyl fluorophore
- Fraction of bound dansylated NR peptide, ∆LSBD641:ND-NR 1:1, experimentally determined (∆LSBD641; 50 μM ∆LSBD641, 2 μM D-NR, 50 μM ND-NR, Tris 50 mM pH 7.4, 150 mM KCl, 5 mM MgCl2, 1 h room temperature, average of three samples): 0.62 ± 0.1
- Fraction of bound dansylated NR peptide, ∆LSBD641:ND-NR 1:4, experimentally determined (∆LSBD641; 50 μM ∆LSBD641, 2 μM D-NR, 200 μM ND-NR, Tris 50 mM pH 7.4, 150 mM KCl, 5 mM MgCl2, 1 h room temperature, average of three samples): 0.35 ± 0.1
- D-NR peptide bound (∆LSBD641; 50 μM ∆LSBD641, 2 μM D-NR, no ND-NR, according to affinity from fluorescence titration): 83%
- Affinity of dansylated vs non-dansylated NR peptide (∆LSBD641; fluorescence competition assay): essentially the same affinity
